{
  "source": "patent US6387638",
  "binders": {"B1": {"name": "HRG8: wild-type HRG-β1 177-228 (HRG-β1 EGF 1-52) fused via (GGGS)3 to pIII 323, phage-displayed (ligand, phage M13)", "chain": "SHLVKCAEKEKTFCVNGGECFMVKDLSNPSRYLCKCPNEFTGDRCQNYVMASGGGSGGGSGGGSNSQMAQVGDGDNSPLMNNFRQYLPSLPQSVECRPFVFSAGKPYEFSIDCDKINLFRGVFAFLLYVATFMYVFSTFANILRNKES", "notes": "range 323-end; Monovalent M13 phage display; also called wild-type HRG-β1 EGF-phage"}, "B2": {"name": "HRG-β1 EGF variant D4, phage-displayed (ligand)", "chain": "SHLVKCAEKEKTFCVNGGECYRVKTLSNPSRYLCKCPNEFTGDRCQNYVMAS", "modifications": "not fully specified; cysteine pairing not given here", "notes": "pHRG8-g3 scaffold; not shown: Display carrier only: the (GGGS)3 linker and the M13 pIII C-terminal fragment from residue 323"}, "B3": {"name": "HRG-β1 177-244 F216A, phage-displayed (ligand, phage M13)", "chain": "SHLVKCAEKEKTFCVNGGECFMVKDLSNPSRYLCKCPNEATGDRCQNYVMASFYKHLGIEFMEAEELYGGSGGGSGSGDFDYEKMANANKGAMTENADENALQSDAKGKLDSVATDYGAAIDGFIGDVSGLANGNGATGDFAGSNSQMAQVGDGDNSPLMNNFRQYLPSLPQSVECRPFVFSAGKPYEFSIDCDKINLFRGVFAFLLYVATFMYVASTFANILRNKES", "notes": "range 247-end"}, "B4": {"name": "HRG-β1 177-244 L179M, phage-displayed (Example 4 clone) (ligand)", "chain": "SHMVKCAEKEKTFCVNGGECFMVKDLSNPSRYLCKCPNEFTGDRCQNYVMASFYKHLGIEFMEAEELY", "notes": "not shown: Display carrier only: the M13 pIII C-terminal fragment from residue 247"}, "B5": {"name": "HRG-β1 177-244 H178E L179V, phage-displayed (Example 4 clone) (ligand)", "chain": "B4 chain with H2E, M3V", "notes": "also called E V ·; not shown: M13 pIII C-terminal fragment (fusion point pIII 247), the phage display partner"}, "B6": {"name": "HRG-β1 177-244 F189A, phage-displayed (ligand)", "chain": "B4 chain with M3L, F13A"}, "B7": {"name": "HRG-β1 177-244 H178T L179M, phage-displayed (Example 4 clone) (ligand)", "chain": "B4 chain with H2T", "notes": "also called T M ·; not shown: M13 pIII C-terminal fragment (fusion point pIII 247), the phage display partner"}},
  "key": {"[1]": {"target": "T1, ErbB-4 receptor-Ig fusion (homodimer) (human, UniProt Q15303 26-651; Q15303 26-640)", "T1 sequence (Q15303 other isoform, or with tags, fused parts or gaps)": "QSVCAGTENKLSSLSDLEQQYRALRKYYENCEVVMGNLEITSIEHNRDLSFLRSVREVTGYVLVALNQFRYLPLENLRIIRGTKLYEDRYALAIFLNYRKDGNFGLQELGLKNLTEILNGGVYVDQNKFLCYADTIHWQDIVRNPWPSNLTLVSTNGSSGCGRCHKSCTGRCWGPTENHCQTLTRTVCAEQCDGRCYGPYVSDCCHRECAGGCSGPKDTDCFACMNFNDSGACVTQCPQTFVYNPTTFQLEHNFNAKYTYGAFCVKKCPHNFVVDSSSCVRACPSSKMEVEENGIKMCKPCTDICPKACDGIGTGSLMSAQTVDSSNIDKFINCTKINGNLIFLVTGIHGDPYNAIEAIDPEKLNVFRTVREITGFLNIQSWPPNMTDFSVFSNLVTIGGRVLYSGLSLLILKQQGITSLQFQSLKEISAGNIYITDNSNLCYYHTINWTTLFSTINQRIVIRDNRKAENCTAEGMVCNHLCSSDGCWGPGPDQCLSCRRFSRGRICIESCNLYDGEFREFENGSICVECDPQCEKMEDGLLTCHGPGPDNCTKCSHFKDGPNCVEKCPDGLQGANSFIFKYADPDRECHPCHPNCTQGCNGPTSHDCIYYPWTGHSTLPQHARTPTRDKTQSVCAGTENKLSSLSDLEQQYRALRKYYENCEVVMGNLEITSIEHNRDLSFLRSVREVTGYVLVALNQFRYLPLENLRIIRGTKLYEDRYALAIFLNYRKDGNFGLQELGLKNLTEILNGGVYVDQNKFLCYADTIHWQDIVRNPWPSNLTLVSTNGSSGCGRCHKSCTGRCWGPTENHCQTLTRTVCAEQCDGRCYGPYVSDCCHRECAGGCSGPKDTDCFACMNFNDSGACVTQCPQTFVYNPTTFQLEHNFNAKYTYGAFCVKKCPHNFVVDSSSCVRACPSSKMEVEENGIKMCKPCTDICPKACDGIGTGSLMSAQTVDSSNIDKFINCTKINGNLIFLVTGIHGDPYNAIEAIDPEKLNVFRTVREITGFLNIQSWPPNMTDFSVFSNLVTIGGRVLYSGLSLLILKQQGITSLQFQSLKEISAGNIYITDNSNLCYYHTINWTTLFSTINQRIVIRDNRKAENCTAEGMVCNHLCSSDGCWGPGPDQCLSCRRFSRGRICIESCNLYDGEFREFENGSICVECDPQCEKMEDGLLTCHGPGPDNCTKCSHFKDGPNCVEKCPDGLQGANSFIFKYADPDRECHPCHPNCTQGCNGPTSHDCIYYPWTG", "experiment": "phage ELISA, soluble ErbB-4-Ig as competitor"}, "[2]": {"target": "T2, ErbB-3 receptor-Ig fusion (homodimer) (human, UniProt P21860 20-643; P21860 20-636)", "T2 sequence (P21860 other isoform, or with tags, fused parts or gaps)": "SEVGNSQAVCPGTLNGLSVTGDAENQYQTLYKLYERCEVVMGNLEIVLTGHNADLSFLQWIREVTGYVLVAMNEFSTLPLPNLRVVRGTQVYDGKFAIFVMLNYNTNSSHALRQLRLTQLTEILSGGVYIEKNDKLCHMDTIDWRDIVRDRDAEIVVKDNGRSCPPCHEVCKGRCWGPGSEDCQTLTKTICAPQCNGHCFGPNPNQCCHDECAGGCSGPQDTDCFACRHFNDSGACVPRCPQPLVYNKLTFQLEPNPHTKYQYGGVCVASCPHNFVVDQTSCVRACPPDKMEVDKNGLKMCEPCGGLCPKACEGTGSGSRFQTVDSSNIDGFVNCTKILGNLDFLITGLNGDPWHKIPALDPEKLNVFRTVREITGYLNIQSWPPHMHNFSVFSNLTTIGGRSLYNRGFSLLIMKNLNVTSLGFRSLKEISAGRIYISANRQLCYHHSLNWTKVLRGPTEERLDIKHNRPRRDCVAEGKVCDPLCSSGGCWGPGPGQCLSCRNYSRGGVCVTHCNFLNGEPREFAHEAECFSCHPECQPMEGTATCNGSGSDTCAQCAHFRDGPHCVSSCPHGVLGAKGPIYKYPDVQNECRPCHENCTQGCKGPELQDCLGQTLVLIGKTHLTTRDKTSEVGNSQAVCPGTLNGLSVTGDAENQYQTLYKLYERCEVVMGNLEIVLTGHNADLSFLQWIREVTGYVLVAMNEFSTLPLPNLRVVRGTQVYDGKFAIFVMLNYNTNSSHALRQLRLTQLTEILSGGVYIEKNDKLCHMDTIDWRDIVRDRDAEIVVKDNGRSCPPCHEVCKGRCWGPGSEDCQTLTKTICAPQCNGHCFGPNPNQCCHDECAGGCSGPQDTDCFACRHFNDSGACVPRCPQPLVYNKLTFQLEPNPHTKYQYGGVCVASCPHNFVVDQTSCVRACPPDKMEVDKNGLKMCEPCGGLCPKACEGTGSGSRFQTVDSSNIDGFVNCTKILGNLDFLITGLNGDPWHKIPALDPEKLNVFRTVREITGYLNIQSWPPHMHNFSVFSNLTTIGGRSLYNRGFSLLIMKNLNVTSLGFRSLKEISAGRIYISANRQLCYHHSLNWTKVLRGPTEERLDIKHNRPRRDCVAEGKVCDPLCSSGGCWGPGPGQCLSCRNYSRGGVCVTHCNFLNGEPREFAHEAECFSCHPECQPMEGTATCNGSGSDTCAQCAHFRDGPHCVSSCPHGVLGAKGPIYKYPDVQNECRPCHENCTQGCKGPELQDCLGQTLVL", "experiment": "phage ELISA, soluble ErbB-3-Ig as competitor"}, "[3]": {"target": "T2, ErbB-3 receptor-Ig fusion (homodimer)", "experiment": "phage ELISA, soluble ErbB-3-Ig as competitor", "remark": "listed apart in the source"}, "[4]": {"target": "T1, ErbB-4 receptor-Ig fusion (homodimer)", "experiment": "phage ELISA, soluble ErbB-4-Ig as competitor", "remark": "listed apart in the source"}, "[5]": {"target": "T2, ErbB-3 receptor-Ig fusion (homodimer)", "experiment": "phage ELISA, soluble ErbB-3-Ig as competitor", "remark": "listed apart in the source"}, "[6]": {"target": "T1, ErbB-4 receptor-Ig fusion (homodimer)", "experiment": "phage ELISA, soluble ErbB-4-Ig as competitor", "remark": "listed apart in the source"}},
  "note": "Changes are numbered by the printed parent chain. Names and notes keep the numbering of the source. Ends that are not written are not given here.",
  "data": [
    {"binder": "B1", "values": [
      {"measurement": "EC50(wt)/EC50(mut)", "setting": "[1]", "value": 1, "unit": "ratio"},
      {"measurement": "EC50(wt)/EC50(mut)", "setting": "[2]", "value": 1, "unit": "ratio"}
    ]},
    {"binder": "B2", "values": [
      {"measurement": "EC50(wt)/EC50(mut)", "setting": "[1]", "value": 5, "unit": "ratio"},
      {"measurement": "EC50(wt)/EC50(mut)", "setting": "[2]", "value": 2.9, "unit": "ratio"}
    ]},
    {"binder": "B3", "values": [
      {"measurement": "EC50", "setting": "[3]", "value": 500, "unit": "nM"}
    ]},
    {"binder": "B4", "values": [
      {"measurement": "EC50 Mut/WT", "setting": "[4]", "value": 1.5, "unit": "ratio"},
      {"measurement": "EC50 Mut/WT", "setting": "[5]", "value": 1.2, "unit": "ratio"}
    ]},
    {"binder": "B5", "values": [
      {"measurement": "EC50 Mut/WT", "setting": "[4]", "value": 1.7, "unit": "ratio"},
      {"measurement": "EC50 Mut/WT", "setting": "[5]", "value": 0.8, "unit": "ratio"}
    ]},
    {"binder": "B6", "values": [
      {"measurement": "EC50", "setting": "[6]", "value": 106, "unit": "nM"},
      {"measurement": "EC50", "setting": "[3]", "value": 892, "unit": "nM"}
    ]},
    {"binder": "B7", "values": [
      {"measurement": "EC50 Mut/WT", "setting": "[4]", "value": 1.6, "unit": "ratio"},
      {"measurement": "EC50 Mut/WT", "setting": "[5]", "value": 1.4, "unit": "ratio"}
    ]}
  ]
}
